Experimental data: paper PMC9482650, “Quantitative fragmentomics allow affinity mapping of interactomes” (Nature Communications, 2022)

What was measured:
Experiment in all cases: holdup assay
Set-up in all cases: key: below the threshold = too weak to quantify, mostly under pKd 3.1 to 4
PDLIM1, O00151 = molecular target: PDLIM1, O00151
MPP6, Q9NZW5 = molecular target: T1, MPP6, Q9NZW5
T1 sequence (Q9NZW5 125-219, limits assumed, looked up): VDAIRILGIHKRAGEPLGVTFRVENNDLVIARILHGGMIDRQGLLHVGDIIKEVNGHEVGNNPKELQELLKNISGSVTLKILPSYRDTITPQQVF

HTRA4, P83105 = molecular target: T2, HTRA4, P83105
T2 sequence (P83105 378-476, limits assumed, looked up): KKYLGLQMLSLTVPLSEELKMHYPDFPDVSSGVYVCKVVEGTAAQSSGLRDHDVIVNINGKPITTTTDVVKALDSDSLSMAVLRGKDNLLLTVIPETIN

MPP2, Q14168 = molecular target: T3, MPP2, Q14168
T3 sequence (Q14168 180-250, limits assumed, looked up): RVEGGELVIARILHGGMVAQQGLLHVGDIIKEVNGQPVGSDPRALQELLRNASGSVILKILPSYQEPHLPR

NHERF3_3, Q5T2W1 = molecular target: T4, NHERF3_3, Q5T2W1
T4 sequence (Q5T2W1 238-333, limits assumed, looked up): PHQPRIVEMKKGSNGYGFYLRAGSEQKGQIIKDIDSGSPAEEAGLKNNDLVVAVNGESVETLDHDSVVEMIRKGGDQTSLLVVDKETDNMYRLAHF

DFNB31_1, Q9P202 = molecular target: T5, DFNB31_1, Q9P202
T5 sequence (Q9P202 135-233, limits assumed, looked up): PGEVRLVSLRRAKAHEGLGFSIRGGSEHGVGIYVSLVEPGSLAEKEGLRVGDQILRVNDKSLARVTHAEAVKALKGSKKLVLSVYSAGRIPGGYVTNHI

APBA1_1, Q02410 = molecular target: T6, APBA1_1, Q02410
T6 sequence (Q02410 651-752, limits assumed, looked up): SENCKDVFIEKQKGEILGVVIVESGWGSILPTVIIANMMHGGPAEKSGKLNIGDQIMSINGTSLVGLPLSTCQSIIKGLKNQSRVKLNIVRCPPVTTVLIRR

AHNAK1, Q09666 = molecular target: AHNAK1, Q09666
LNX1_2, Q8TBB1 = molecular target: LNX1_2, Q8TBB1
Inadl_2, Q8NI35 = molecular target: Inadl_2, Q8NI35
NHERF4_1, Q86UT5-2 = molecular target: NHERF4_1, Q86UT5-2
NHERF4_2, Q86UT5 = molecular target: NHERF4_2, Q86UT5
MAST2, Q6P0Q8 = molecular target: MAST2, Q6P0Q8
LDB3, O75112 = molecular target: LDB3, O75112
FRMPD1, Q5SYB0 = molecular target: T7, FRMPD1, Q5SYB0
T7 sequence (Q5SYB0 52-145, limits assumed, looked up): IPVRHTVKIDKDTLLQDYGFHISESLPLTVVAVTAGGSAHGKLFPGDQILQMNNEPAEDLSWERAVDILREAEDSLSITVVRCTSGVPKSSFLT

MPP7, Q5T2T1 = molecular target: T8, MPP7, Q5T2T1
T8 sequence (Q5T2T1 134-230, limits assumed, looked up): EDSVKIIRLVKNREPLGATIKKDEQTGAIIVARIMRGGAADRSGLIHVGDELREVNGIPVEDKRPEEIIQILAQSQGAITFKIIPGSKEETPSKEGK

TJP3_3, O95049 = molecular target: T9, TJP3_3, O95049
T9 sequence (O95049 375-456, limits assumed, looked up): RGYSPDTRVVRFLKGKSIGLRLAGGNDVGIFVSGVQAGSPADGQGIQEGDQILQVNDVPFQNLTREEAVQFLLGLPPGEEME

DVL3, Q92997 = molecular target: T10, DVL3, Q92997
T10 sequence (Q92997 244-331, limits assumed, looked up): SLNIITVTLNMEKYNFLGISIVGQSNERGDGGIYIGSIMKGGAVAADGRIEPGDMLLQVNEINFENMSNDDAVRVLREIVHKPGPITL

ARHGEF12, Q9NZN5-2 = molecular target: ARHGEF12, Q9NZN5-2
Inadl_9, Q8NI35 = molecular target: Inadl_9, Q8NI35
SCRIB_3, Q14160 = molecular target: SCRIB_3, Q14160
NHERF3_1, Q5T2W1 = molecular target: T11, NHERF3_1, Q5T2W1
T11 sequence (Q5T2W1 4-100, limits assumed, looked up): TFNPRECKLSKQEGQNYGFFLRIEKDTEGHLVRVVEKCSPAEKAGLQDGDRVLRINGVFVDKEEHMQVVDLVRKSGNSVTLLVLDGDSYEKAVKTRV

PCLO, Q9Y6V0 = molecular target: T12, PCLO, Q9Y6V0
T12 sequence (Q9Y6V0 4491-4600, limits assumed, looked up): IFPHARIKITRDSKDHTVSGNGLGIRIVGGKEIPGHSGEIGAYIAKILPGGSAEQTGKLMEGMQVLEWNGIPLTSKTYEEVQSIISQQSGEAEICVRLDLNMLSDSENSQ

DLG4_1, P78352 = molecular target: DLG4_1, P78352
SCRIB_2, Q14160 = molecular target: SCRIB_2, Q14160
MAST1, Q9Y2H9 = molecular target: MAST1, Q9Y2H9
[1] = plain residues with an end cap or a label only (N-terminal biotin on a linker: gsgsgs; C-terminal amide)
[2] = plain residues with an end cap or a label only (N-terminal biotin on a linker: ttds)

Measured: pKd

MAST1, Q9Y2H9, sequence (Q9Y2H9 962-1065): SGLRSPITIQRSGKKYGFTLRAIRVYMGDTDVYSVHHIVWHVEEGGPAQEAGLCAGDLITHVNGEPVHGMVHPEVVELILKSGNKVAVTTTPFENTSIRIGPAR
NHERF4_1, Q86UT5-2, sequence (Q86UT5 other isoform, or with tags, fused parts or gaps): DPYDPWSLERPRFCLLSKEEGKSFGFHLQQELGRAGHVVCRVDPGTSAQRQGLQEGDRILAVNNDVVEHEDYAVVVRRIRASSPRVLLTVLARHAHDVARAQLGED
LNX1_2, Q8TBB1, sequence (Q8TBB1 371-470): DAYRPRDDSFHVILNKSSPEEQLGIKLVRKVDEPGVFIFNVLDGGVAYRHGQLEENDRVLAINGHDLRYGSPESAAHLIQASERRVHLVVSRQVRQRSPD
SCRIB_2, Q14160, sequence (Q14160 857-960): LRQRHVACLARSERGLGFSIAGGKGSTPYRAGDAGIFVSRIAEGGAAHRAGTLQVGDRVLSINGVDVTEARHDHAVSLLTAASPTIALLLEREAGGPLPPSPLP
Inadl_2, Q8NI35, sequence (Q8NI35 238-335): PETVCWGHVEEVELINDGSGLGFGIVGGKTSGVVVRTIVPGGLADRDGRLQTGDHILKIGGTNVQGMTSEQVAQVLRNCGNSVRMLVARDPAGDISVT
NHERF4_2, Q86UT5, sequence (Q86UT5 220-308): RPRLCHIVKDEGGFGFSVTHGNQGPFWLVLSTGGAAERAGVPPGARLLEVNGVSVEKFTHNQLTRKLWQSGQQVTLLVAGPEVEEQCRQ
ARHGEF12, Q9NZN5-2, sequence (Q9NZN5 other isoform, or with tags, fused parts or gaps): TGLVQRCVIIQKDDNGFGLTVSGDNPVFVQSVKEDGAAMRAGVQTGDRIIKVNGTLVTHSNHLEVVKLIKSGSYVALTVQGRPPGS
PDLIM1, O00151, sequence (O00151 1-87): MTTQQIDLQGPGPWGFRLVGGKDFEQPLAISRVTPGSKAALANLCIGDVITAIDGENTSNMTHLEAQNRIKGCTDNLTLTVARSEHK
AHNAK1, Q09666, sequence (Q09666 4-100): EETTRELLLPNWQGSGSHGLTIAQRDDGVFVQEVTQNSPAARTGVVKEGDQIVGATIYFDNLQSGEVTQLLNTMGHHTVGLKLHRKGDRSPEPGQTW
MAST2, Q6P0Q8, sequence (Q6P0Q8 1099-1202): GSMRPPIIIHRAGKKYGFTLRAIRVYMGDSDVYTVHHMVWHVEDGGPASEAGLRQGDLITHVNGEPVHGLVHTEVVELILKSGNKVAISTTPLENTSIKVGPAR
DLG4_1, P78352, sequence (P78352 62-152): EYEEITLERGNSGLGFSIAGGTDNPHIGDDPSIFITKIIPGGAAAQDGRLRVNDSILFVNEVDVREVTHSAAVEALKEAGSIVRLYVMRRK
Inadl_9, Q8NI35, sequence (Q8NI35 1530-1615): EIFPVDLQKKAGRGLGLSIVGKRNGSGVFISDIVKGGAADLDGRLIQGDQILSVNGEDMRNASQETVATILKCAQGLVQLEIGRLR
LDB3, O75112, sequence (O75112 1-94): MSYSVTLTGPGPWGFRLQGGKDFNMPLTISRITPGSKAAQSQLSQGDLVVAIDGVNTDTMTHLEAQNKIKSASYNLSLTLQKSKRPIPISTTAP
SCRIB_3, Q14160, sequence (Q14160 999-1103): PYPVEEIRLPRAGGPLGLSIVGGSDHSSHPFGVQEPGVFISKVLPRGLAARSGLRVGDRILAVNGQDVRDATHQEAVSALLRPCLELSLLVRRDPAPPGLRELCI

TLSLTDSSVDGIPPYR [AXIN1_int, O15169]
below the threshold: PDLIM1, O00151; [1] | HTRA4, P83105; [1] | MPP2, Q14168; [1] | NHERF3_3, Q5T2W1; [1] | DFNB31_1, Q9P202; [1] | APBA1_1, Q02410; [1] | AHNAK1, Q09666; [1] | LNX1_2, Q8TBB1; [1] | Inadl_2, Q8NI35; [1] | NHERF4_1, Q86UT5-2; [1] | NHERF4_2, Q86UT5; [1] | MAST2, Q6P0Q8; [1] | LDB3, O75112; [1] | FRMPD1, Q5SYB0; [1] | MPP7, Q5T2T1; [1] | TJP3_3, O95049; [1] | DVL3, Q92997; [1] | ARHGEF12, Q9NZN5-2; [1] | Inadl_9, Q8NI35; [1] | SCRIB_3, Q14160; [1] | NHERF3_1, Q5T2W1; [1] | PCLO, Q9Y6V0; [1] | DLG4_1, P78352; [1] | SCRIB_2, Q14160; [1]
3.68: MAST1, Q9Y2H9; [1]
3.93: MPP6, Q9NZW5; [1]

TVASEKESVM [SLC1A5, Q15758]
4.42: NHERF3_1, Q5T2W1; [2]
4.2: MAST1, Q9Y2H9; [2]
below the threshold: PDLIM1, O00151; [2] | MPP6, Q9NZW5; [2] | HTRA4, P83105; [2] | MPP2, Q14168; [2] | NHERF3_3, Q5T2W1; [2] | APBA1_1, Q02410; [2] | AHNAK1, Q09666; [2] | LNX1_2, Q8TBB1; [2] | Inadl_2, Q8NI35; [2] | NHERF4_1, Q86UT5-2; [2] | NHERF4_2, Q86UT5; [2] | LDB3, O75112; [2] | FRMPD1, Q5SYB0; [2] | MPP7, Q5T2T1; [2] | TJP3_3, O95049; [2] | DVL3, Q92997; [2] | Inadl_9, Q8NI35; [2] | PCLO, Q9Y6V0; [2] | SCRIB_2, Q14160; [2]
4.61: MAST2, Q6P0Q8; [2]
3.65: DFNB31_1, Q9P202; [2] | ARHGEF12, Q9NZN5-2; [2]
3.97: SCRIB_3, Q14160; [2]
3.56: DLG4_1, P78352; [2]

IYVPEAQTRL [DLGAP4, Q9Y2H0]
4.1: ARHGEF12, Q9NZN5-2; [2]
5.25: NHERF3_1, Q5T2W1; [2]
3.98: SCRIB_3, Q14160; [2]
3.65: NHERF4_1, Q86UT5-2; [2]
5.01: MAST1, Q9Y2H9; [2]
3.96: DFNB31_1, Q9P202; [2]
6.16: MAST2, Q6P0Q8; [2]
4.14: NHERF3_3, Q5T2W1; [2]
below the threshold: PDLIM1, O00151; [2] | MPP6, Q9NZW5; [2] | HTRA4, P83105; [2] | MPP2, Q14168; [2] | APBA1_1, Q02410; [2] | AHNAK1, Q09666; [2] | LNX1_2, Q8TBB1; [2] | Inadl_2, Q8NI35; [2] | NHERF4_2, Q86UT5; [2] | LDB3, O75112; [2] | FRMPD1, Q5SYB0; [2] | MPP7, Q5T2T1; [2] | TJP3_3, O95049; [2] | DVL3, Q92997; [2] | Inadl_9, Q8NI35; [2] | PCLO, Q9Y6V0; [2] | DLG4_1, P78352; [2] | SCRIB_2, Q14160; [2]

PKTPPTDTSV [KIR3DL3, Q8N743]
below the threshold: PDLIM1, O00151; [2] | MPP6, Q9NZW5; [2] | HTRA4, P83105; [2] | MPP2, Q14168; [2] | NHERF3_3, Q5T2W1; [2] | APBA1_1, Q02410; [2] | AHNAK1, Q09666; [2] | LNX1_2, Q8TBB1; [2] | Inadl_2, Q8NI35; [2] | NHERF4_1, Q86UT5-2; [2] | NHERF4_2, Q86UT5; [2] | LDB3, O75112; [2] | FRMPD1, Q5SYB0; [2] | MPP7, Q5T2T1; [2] | TJP3_3, O95049; [2] | DVL3, Q92997; [2] | ARHGEF12, Q9NZN5-2; [2] | Inadl_9, Q8NI35; [2] | SCRIB_3, Q14160; [2] | NHERF3_1, Q5T2W1; [2] | PCLO, Q9Y6V0; [2] | MAST1, Q9Y2H9; [2]
4.04: DLG4_1, P78352; [2]
4.7: MAST2, Q6P0Q8; [2]
3.69: DFNB31_1, Q9P202; [2]
4.08: SCRIB_2, Q14160; [2]
